According to publication PMC5503242:
Each block holds one substance with its values, some of them ahead of it.

Tests used:
[1] = target: ClC-rm1, ClC protein of Ralstonia metallidurans (WP_011515329), with C-terminal 6x(His) tag (Ralstonia metallidurans); assay: SDS-PAGE (dimer resistant to denaturation); NUPAGE 4-12% Bis-Tris gel of ClC-rm1 eluted from Ni2+ resin or after SEC; Western blot with His tag antibody
[2] = target: ClC-rm1, ClC protein of Ralstonia metallidurans (WP_011515329), with C-terminal 6x(His) tag (Ralstonia metallidurans); assay: SEC; Superose 6 or Superdex 200, 0.03% (w/v) DDM, 150 mM NaCl, 5 mM KCl, 20 mM Tris-HCl pH 8.0; also after exchange to DM, OG or amphipol A8-35
[3] = target: ClC-ec1, E. coli ClC protein (E. coli) (UniProt P37019); assay: SEC; purified ClC-ec1, apparent mass around 150 kDa with associated detergent
[4] = target: ClC-rm1_eGFP, ClC-rm1 with eGFP and a 10x(His) tag at the C-terminus (Ralstonia metallidurans); assay: SEC; Superose 6 or Superdex 200, 0.03% (w/v) DDM, 150 mM NaCl, 5 mM KCl, 20 mM Tris-HCl pH 8.0; also after exchange to DM, OG or amphipol A8-35

stoichiometry N [1]: 2
stoichiometry N [2]: 2
Substance: ClC-rm1, ClC protein of Ralstonia metallidurans (WP_011515329), with C-terminal 6x(His) tag (natural protein)

stoichiometry N [3]: 2
Substance: ClC-ec1, E. coli ClC protein (from UniProt P37019 1-473) (natural protein)

stoichiometry N [4]: 2
Substance: ClC-rm1_eGFP, ClC-rm1 with eGFP and a 10x(His) tag at the C-terminus (natural protein)
